In PMC4373793 one finds stoichiometry N, Kd and percent increase in plasminogen binding (against wild-type SEN) data, which are given here for 3 substances.

Assay [1] deals with Streptococcal surface enolase (SEN), wild-type, group A Streptococcus (Streptococcus pyogenes) (Streptococcus pyogenes (group A Streptococcus)) (UniProt P69949). In words: crystal structure; hanging drop, 1-3.5 M sodium/potassium phosphate pH 5-7.5, 2% PEG 400; space group P4; octamer = tetramer of dimers.
In assay [2] the target is Human Glu-plasminogen (circulating form of human plasminogen) (human). Nature of the assay: ELISA; plate coated with serial dilutions of Glu-plasminogen (carbonate buffer pH 9.6); wells incubated with 5 ug wild-type or mutant SEN; apparent KD, one-site specific binding.
For assay [3], the target named is Streptococcal surface enolase (SEN), wild-type, group A Streptococcus (Streptococcus pyogenes) (Streptococcus pyogenes (group A Streptococcus)) (UniProt P69949). Nature of the assay: native MS; Superdex-200 in 200 mM NH4OAc pH 6.8, peak fractions pooled, Synapt HDMS under conditions that preserve non-covalent interactions; single peak of wild type and K312A, elution peak 1 of K362A.

For assay [4], the target named is Streptococcal surface enolase mutant SEN^K312A (Streptococcus pyogenes (group A Streptococcus)) (UniProt P69949). In words: crystal structure; hanging drop, 1-3.5 M sodium/potassium phosphate pH 5-7.5, 2% PEG 400; space group P4; octamer = tetramer of dimers.
Assay [5] shares this target. Nature of the assay: native MS; Superdex-200 in 200 mM NH4OAc pH 6.8, peak fractions pooled, Synapt HDMS under conditions that preserve non-covalent interactions; single peak of wild type and K312A, elution peak 1 of K362A.
For assay [6], the target named is Human Glu-plasminogen (circulating form of human plasminogen) (human). Nature of the assay: SPR; BIAcore 3000; Glu-plasminogen immobilised on a CM5 chip (~10,000 RU; also a lower-density surface ~1,000 RU); 100 nM SEN injected 500 s at room temperature in 10 mM HEPES pH 7.4, 0.15 M NaCl, 3 mM EDTA, 0.005% P20, 30 ul/min; kinetic models could not be fitted, assessed qualitatively. (SPR reads the build-up and loss of mass on a sensor chip optically.)

The target of assay [7] is Streptococcal surface enolase mutant SEN^K362A (Streptococcus pyogenes (group A Streptococcus)) (UniProt P69949). In words: crystal structure; hanging drop, 1-3.5 M sodium/potassium phosphate pH 5-7.5, 2% PEG 400; space group P4; octamer = tetramer of dimers.
The target is the same in assay [8]. In words: native MS; Superdex-200 in 200 mM NH4OAc pH 6.8, peak fractions pooled, Synapt HDMS under conditions that preserve non-covalent interactions; single peak of wild type and K312A, elution peak 1 of K362A.

“And” between values parts separate entries of the source, which are not always exact repeats. Equal entries are not always repeated.

Take “Streptococcal surface enolase (SEN), wild-type, group A Streptococcus (Streptococcus pyogenes) (from UniProt P69949 1-435) (enzyme)”: the stoichiometry N in assay [1] and in assay [3] was 8 in each case. In addition, the Kd in assay [2] is 14.1 nM.

Consider “Streptococcal surface enolase mutant SEN^K312A (from UniProt P69949 1-435) (enzyme)”, for which the stoichiometry N in assay [4] and in assay [5] was 8 throughout. Moreover, the Kd in assay [2] worked out at 19.3 nM. This substance returned a percent increase in plasminogen binding (against wild-type SEN) in assay [6] of 196%.

“Streptococcal surface enolase mutant SEN^K362A (from UniProt P69949 1-435) (enzyme)”: the stoichiometry N (usually a count of units in the complex or per binding partner) in assay [7] is 8; in assay [8], 8 and 7. Besides, in assay [2], the Kd came out at 1.85 nM. The substance also returned a percent increase in plasminogen binding (against wild-type SEN) in assay [6] of 341%.
